# According to PMC9482650, “Quantitative fragmentomics allow affinity mapping of interactomes” (Nature Communications, 2022):
# T1: TX1BP3, O14907
# T1 sequence (O14907 10-122, limits assumed, looked up): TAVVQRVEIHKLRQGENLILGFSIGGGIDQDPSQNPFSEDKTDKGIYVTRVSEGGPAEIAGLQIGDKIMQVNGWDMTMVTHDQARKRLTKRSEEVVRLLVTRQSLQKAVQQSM
# T2: SNTB1, Q13884
# T2 sequence (Q13884 107-205, limits assumed, looked up): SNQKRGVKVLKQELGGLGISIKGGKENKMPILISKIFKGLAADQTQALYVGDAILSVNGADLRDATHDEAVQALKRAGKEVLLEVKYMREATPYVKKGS
# T3: GRIP1_3, Q9Y3R0
# T3 sequence (Q9Y3R0 247-346, limits assumed, looked up): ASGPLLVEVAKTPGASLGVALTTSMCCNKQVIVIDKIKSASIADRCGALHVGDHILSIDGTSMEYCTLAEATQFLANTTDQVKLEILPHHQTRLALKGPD
# T4: PDZRN3_1, Q9UPQ7
# T4 sequence (Q9UPQ7 244-349, limits assumed, looked up): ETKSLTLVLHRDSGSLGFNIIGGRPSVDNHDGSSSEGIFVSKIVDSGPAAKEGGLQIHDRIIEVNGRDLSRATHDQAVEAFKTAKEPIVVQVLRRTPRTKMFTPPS
# T5: GRIP1_5, Q9Y3R0
# T5 sequence (Q9Y3R0 568-668, limits assumed, looked up): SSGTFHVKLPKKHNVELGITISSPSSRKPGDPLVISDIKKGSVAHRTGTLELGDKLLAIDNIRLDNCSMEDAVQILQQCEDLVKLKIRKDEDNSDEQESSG
# T6: DFNB31_1, Q9P202
# T6 sequence (Q9P202 135-233, limits assumed, looked up): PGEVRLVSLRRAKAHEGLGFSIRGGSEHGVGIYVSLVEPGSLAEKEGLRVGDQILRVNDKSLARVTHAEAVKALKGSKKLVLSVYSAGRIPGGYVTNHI
# T7: RADIL, Q96JH8
# T7 sequence (Q96JH8 971-1071, limits assumed, looked up): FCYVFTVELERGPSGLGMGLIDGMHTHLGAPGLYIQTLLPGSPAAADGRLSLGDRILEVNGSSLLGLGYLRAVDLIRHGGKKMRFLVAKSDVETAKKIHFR
# T8: APBA3_1, O96018
# T8 sequence (O96018 389-490, limits assumed, looked up): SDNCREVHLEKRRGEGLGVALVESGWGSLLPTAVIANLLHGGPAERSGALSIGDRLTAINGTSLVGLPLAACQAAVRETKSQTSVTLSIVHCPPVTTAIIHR
# B1: SLC26A3, P40879 (peptide)
# chain: VYEVPVETKF
# Target: MAGI2_6, Q86UL8
# Sequence (Q86UL8 1141-1229): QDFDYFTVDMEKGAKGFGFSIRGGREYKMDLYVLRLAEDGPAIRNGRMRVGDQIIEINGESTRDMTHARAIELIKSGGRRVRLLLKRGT
# Assay: holdup assay
# Design: key: below the threshold = too weak to quantify, mostly under pKd 3.1 to 4
# Details: plain residues with an end cap or a label only (N-terminal biotin on a linker: ado-ado)
row,pKd,Binder
1,4,B1

# Target: LNX1_1, Q8TBB1
# Sequence (Q8TBB1 261-371): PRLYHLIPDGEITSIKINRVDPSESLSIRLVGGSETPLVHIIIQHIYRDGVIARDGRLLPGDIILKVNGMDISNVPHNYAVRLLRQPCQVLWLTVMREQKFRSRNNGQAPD
# Assay: holdup assay
# Design: key: below the threshold = too weak to quantify, mostly under pKd 3.1 to 4
# Details: plain residues with an end cap or a label only (N-terminal biotin on a linker: ado-ado)
row,pKd,Binder
1,3.85,B1

# Target: FRMPD4, Q14CM0
# Sequence (Q14CM0 67-160): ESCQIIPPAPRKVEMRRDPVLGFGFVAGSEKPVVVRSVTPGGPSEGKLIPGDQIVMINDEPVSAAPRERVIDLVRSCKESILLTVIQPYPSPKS
# Assay: holdup assay
# Design: key: below the threshold = too weak to quantify, mostly under pKd 3.1 to 4
# Details: plain residues with an end cap or a label only (N-terminal biotin on a linker: ado-ado)
row,pKd,Binder
1,3.65,B1

# Target: Inadl_6, Q8NI35
# Sequence (Q8NI35 1058-1167): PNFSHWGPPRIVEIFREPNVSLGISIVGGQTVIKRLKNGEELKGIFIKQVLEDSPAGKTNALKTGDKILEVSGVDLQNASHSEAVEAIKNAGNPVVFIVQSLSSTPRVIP
# Assay: holdup assay
# Design: key: below the threshold = too weak to quantify, mostly under pKd 3.1 to 4
# Details: plain residues with an end cap or a label only (N-terminal biotin on a linker: ado-ado)
row,pKd,Binder
1,below the threshold,B1

# Target: T1, TX1BP3, O14907
# Assay: holdup assay
# Design: key: below the threshold = too weak to quantify, mostly under pKd 3.1 to 4
# Details: plain residues with an end cap or a label only (N-terminal biotin on a linker: ado-ado)
row,pKd,Binder
1,below the threshold,B1

# Target: T2, SNTB1, Q13884
# Assay: holdup assay
# Design: key: below the threshold = too weak to quantify, mostly under pKd 3.1 to 4
# Details: plain residues with an end cap or a label only (N-terminal biotin on a linker: ado-ado)
row,pKd,Binder
1,below the threshold,B1

# Target: T3, GRIP1_3, Q9Y3R0
# Assay: holdup assay
# Design: key: below the threshold = too weak to quantify, mostly under pKd 3.1 to 4
# Details: plain residues with an end cap or a label only (N-terminal biotin on a linker: ado-ado)
row,pKd,Binder
1,below the threshold,B1

# Target: MAGI1_2, Q96QZ7
# Sequence (Q96QZ7 456-580): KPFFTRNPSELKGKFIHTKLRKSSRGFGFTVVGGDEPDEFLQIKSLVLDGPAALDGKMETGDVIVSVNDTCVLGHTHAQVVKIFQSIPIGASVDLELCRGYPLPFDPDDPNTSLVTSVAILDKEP
# Assay: holdup assay
# Design: key: below the threshold = too weak to quantify, mostly under pKd 3.1 to 4
# Details: plain residues with an end cap or a label only (N-terminal biotin on a linker: ado-ado)
row,pKd,Binder
1,below the threshold,B1

# Target: DLG4_3, P78352
# Sequence (P78352 306-403): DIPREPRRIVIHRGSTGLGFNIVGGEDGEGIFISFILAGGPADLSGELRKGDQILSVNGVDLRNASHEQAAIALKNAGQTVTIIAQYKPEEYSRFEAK
# Assay: holdup assay
# Design: key: below the threshold = too weak to quantify, mostly under pKd 3.1 to 4
# Details: plain residues with an end cap or a label only (N-terminal biotin on a linker: ado-ado)
row,pKd,Binder
1,below the threshold,B1

# Target: PICK1, Q9NRD5
# Sequence (Q9NRD5 17-115): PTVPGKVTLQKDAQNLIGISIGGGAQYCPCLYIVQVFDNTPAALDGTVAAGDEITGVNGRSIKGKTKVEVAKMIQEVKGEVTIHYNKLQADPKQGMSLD
# Assay: holdup assay
# Design: key: below the threshold = too weak to quantify, mostly under pKd 3.1 to 4
# Details: plain residues with an end cap or a label only (N-terminal biotin on a linker: ado-ado)
row,pKd,Binder
1,4.19,B1

# Target: T4, PDZRN3_1, Q9UPQ7
# Assay: holdup assay
# Design: key: below the threshold = too weak to quantify, mostly under pKd 3.1 to 4
# Details: plain residues with an end cap or a label only (N-terminal biotin on a linker: ado-ado)
row,pKd,Binder
1,below the threshold,B1

# Target: T5, GRIP1_5, Q9Y3R0
# Assay: holdup assay
# Design: key: below the threshold = too weak to quantify, mostly under pKd 3.1 to 4
# Details: plain residues with an end cap or a label only (N-terminal biotin on a linker: ado-ado)
row,pKd,Binder
1,below the threshold,B1

# Target: SNX27, Q96L92
# Assay: holdup assay
# Design: key: below the threshold = too weak to quantify, mostly under pKd 3.1 to 4
# Details: plain residues with an end cap or a label only (N-terminal biotin on a linker: ado-ado)
row,pKd,Binder
1,5.33,B1

# Target: GRIP2_4, Q9C0E4
# Sequence (Q9C0E4 446-548): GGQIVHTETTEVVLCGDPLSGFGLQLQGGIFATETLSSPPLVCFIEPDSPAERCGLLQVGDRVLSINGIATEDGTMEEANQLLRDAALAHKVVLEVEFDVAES
# Assay: holdup assay
# Design: key: below the threshold = too weak to quantify, mostly under pKd 3.1 to 4
# Details: plain residues with an end cap or a label only (N-terminal biotin on a linker: ado-ado)
row,pKd,Binder
1,below the threshold,B1

# Target: MAGI1_1, Q96QZ7
# Sequence (Q96QZ7 1-106): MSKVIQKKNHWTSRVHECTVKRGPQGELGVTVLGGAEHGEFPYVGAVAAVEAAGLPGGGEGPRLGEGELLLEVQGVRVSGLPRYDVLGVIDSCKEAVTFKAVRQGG
# Assay: holdup assay
# Design: key: below the threshold = too weak to quantify, mostly under pKd 3.1 to 4
# Details: plain residues with an end cap or a label only (N-terminal biotin on a linker: ado-ado)
row,pKd,Binder
1,below the threshold,B1

# Target: IL16_4, Q14005
# Sequence (Q14005 1229-1329): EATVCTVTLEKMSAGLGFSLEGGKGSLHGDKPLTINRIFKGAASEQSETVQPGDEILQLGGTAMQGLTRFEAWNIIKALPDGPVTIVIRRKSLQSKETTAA
# Assay: holdup assay
# Design: key: below the threshold = too weak to quantify, mostly under pKd 3.1 to 4
# Details: plain residues with an end cap or a label only (N-terminal biotin on a linker: ado-ado)
row,pKd,Binder
1,below the threshold,B1

# Target: DLG5_1, Q8TDM6
# Sequence (Q8TDM6 617-713): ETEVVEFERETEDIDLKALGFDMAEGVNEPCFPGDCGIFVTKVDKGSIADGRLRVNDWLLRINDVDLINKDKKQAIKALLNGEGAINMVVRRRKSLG
# Assay: holdup assay
# Design: key: below the threshold = too weak to quantify, mostly under pKd 3.1 to 4
# Details: plain residues with an end cap or a label only (N-terminal biotin on a linker: ado-ado)
row,pKd,Binder
1,below the threshold,B1

# Target: GRIP2_7, Q9C0E4
# Sequence (Q9C0E4 934-1023): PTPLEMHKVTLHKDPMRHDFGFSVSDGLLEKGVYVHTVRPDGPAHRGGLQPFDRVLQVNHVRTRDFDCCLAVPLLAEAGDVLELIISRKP
# Assay: holdup assay
# Design: key: below the threshold = too weak to quantify, mostly under pKd 3.1 to 4
# Details: plain residues with an end cap or a label only (N-terminal biotin on a linker: ado-ado)
row,pKd,Binder
1,below the threshold,B1

# Target: LNX1_2, Q8TBB1
# Sequence (Q8TBB1 371-470): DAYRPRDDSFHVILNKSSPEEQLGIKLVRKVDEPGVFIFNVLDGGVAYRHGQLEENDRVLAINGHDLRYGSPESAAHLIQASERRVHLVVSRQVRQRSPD
# Assay: holdup assay
# Design: key: below the threshold = too weak to quantify, mostly under pKd 3.1 to 4
# Details: plain residues with an end cap or a label only (N-terminal biotin on a linker: ado-ado)
row,pKd,Binder
1,below the threshold,B1

# Target: GORASP1, Q9BQQ3
# Sequence (Q9BQQ3 1-208): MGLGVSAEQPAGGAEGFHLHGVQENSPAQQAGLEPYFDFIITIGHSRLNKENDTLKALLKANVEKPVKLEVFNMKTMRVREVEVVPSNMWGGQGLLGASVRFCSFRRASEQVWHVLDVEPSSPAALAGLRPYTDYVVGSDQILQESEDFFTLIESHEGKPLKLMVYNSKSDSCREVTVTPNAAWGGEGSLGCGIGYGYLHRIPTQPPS
# Assay: holdup assay
# Design: key: below the threshold = too weak to quantify, mostly under pKd 3.1 to 4
# Details: plain residues with an end cap or a label only (N-terminal biotin on a linker: ado-ado)
row,pKd,Binder
1,below the threshold,B1

# Target: PDZRN4_1, Q6ZMN7
# Sequence (Q6ZMN7 213-318): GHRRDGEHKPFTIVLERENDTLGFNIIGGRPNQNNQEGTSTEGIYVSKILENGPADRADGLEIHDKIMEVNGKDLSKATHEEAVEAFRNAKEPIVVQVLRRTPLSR
# Assay: holdup assay
# Design: key: below the threshold = too weak to quantify, mostly under pKd 3.1 to 4
# Details: plain residues with an end cap or a label only (N-terminal biotin on a linker: ado-ado)
row,pKd,Binder
1,below the threshold,B1

# Target: SCRIB_3, Q14160
# Sequence (Q14160 999-1103): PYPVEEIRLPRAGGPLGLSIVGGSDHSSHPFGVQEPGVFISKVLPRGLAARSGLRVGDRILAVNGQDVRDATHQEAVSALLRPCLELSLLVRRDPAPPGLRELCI
# Assay: holdup assay
# Design: key: below the threshold = too weak to quantify, mostly under pKd 3.1 to 4
# Details: plain residues with an end cap or a label only (N-terminal biotin on a linker: ado-ado)
row,pKd,Binder
1,4.44,B1

# Target: LNX1_3, Q8TBB1
# Sequence (Q8TBB1 500-596): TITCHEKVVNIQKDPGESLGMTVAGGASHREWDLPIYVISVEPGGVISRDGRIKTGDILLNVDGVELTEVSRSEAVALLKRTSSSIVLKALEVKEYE
# Assay: holdup assay
# Design: key: below the threshold = too weak to quantify, mostly under pKd 3.1 to 4
# Details: plain residues with an end cap or a label only (N-terminal biotin on a linker: ado-ado)
row,pKd,Binder
1,below the threshold,B1

# Target: T6, DFNB31_1, Q9P202
# Assay: holdup assay
# Design: key: below the threshold = too weak to quantify, mostly under pKd 3.1 to 4
# Details: plain residues with an end cap or a label only (N-terminal biotin on a linker: ado-ado)
row,pKd,Binder
1,4.21,B1

# Target: GIPC2, Q8TF65
# Sequence (Q8TF65 112-203): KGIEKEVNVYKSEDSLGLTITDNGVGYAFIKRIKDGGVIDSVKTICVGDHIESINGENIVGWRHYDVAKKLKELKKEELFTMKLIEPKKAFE
# Assay: holdup assay
# Design: key: below the threshold = too weak to quantify, mostly under pKd 3.1 to 4
# Details: plain residues with an end cap or a label only (N-terminal biotin on a linker: ado-ado)
row,pKd,Binder
1,3.53,B1

# Target: T7, RADIL, Q96JH8
# Assay: holdup assay
# Design: key: below the threshold = too weak to quantify, mostly under pKd 3.1 to 4
# Details: plain residues with an end cap or a label only (N-terminal biotin on a linker: ado-ado)
row,pKd,Binder
1,below the threshold,B1

# Target: MAGI2_5, Q86UL8
# Sequence (Q86UL8 915-1017): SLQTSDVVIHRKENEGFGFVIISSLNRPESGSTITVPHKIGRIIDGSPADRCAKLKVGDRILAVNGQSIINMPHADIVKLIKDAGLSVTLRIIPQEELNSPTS
# Assay: holdup assay
# Design: key: below the threshold = too weak to quantify, mostly under pKd 3.1 to 4
# Details: plain residues with an end cap or a label only (N-terminal biotin on a linker: ado-ado)
row,pKd,Binder
1,3.71,B1

# Target: T8, APBA3_1, O96018
# Assay: holdup assay
# Design: key: below the threshold = too weak to quantify, mostly under pKd 3.1 to 4
# Details: plain residues with an end cap or a label only (N-terminal biotin on a linker: ado-ado)
row,pKd,Binder
1,below the threshold,B1

# Target: Inadl_1, Q8NI35
# Sequence (Q8NI35 113-229): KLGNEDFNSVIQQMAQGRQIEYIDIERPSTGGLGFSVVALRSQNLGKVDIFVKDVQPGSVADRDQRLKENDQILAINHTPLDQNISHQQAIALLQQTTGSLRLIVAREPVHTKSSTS
# Assay: holdup assay
# Design: key: below the threshold = too weak to quantify, mostly under pKd 3.1 to 4
# Details: plain residues with an end cap or a label only (N-terminal biotin on a linker: ado-ado)
row,pKd,Binder
1,below the threshold,B1
